Blank lines part the entries; values can stand above or below the binder they belong to.
Assays:
[1] = target: T1, wild-type MADD (wtMADD), YFP-tagged, expressed in HEK293 or HeLa cells (Homo sapiens (Human), UniProt Q8WXG6 1-1647, phosphorylated in cells at S70, T173 and T1041 (recognized by anti-phospho S70, T173 and T1041 antibodies)); assay: co-IP with anti-IG20 antibody from HeLa cells expressing MADD-YFP, western blot; also not seen in the reverse IP with anti-caspase-8
T1 construct: Exogenous MADD detected with anti-YFP antibody; Order of MADD and YFP is uncertain; also called YFP-MADD; exogenous MADD; not shown: YFP tag
Text: (§1) These proteins were separated by SDS-PAGE and subjected to western blot analysis to probe for DISC components.
(§2) Samples were lysed, and the lysates were normalized for protein concentration and pre-cleared. […] Complexes were subjected to immunoblotting (WB, Western blot).

[2] = target: T2, DR4 (death receptor 4, a TRAIL receptor), endogenous (UniProt O00220 24-468); assay: IP of DR4 from HeLa lysates, immunoblot for FADD
T2 construct: Endogenous protein immunoprecipitated or blotted from lysates of human cell lines; also called endogenous DR4; DRs
Text: DR4 and DR5 from HeLa and PA-1 cells respectively were immunoprecipitated and probed for known DISC components. […] Forty-eight-hour transduced HeLa cells and PA-1 cells were collected and lysed. Lysates were normalized for protein concentration, and DR4s/DR5s were immunoprecipitated using specific antibodies.

[3] = target: T1, wild-type MADD (wtMADD), YFP-tagged, …; assay: co-IP from HeLa cells expressing MADD-YFP, western blot
Text: as §1, §2

binding result [1]: no binding
B1: caspase-8 (pro-caspase-8, p55/53), endogenous (enzyme, UniProt Q14790 1-479, looked up)
chain: MDFSRNLYDIGEQLDSEDLASLKFLSLDYIPQRKQEPIKDALMLFQRLQEKRMLEESNLSFLKELLFRINRLDLLITYLNTRKEEMERELQTPGRAQISAYRVMLYQISEEVSRSELRSFKFLLQEEISKCKLDDDMNLLDIFIEMEKRVILGEGKLDILKRVCAQINKSLLKIINDYEEFSKERSSSLEGSPDEFSNGEELCGVMTISDSPREQDSESQTLDKVYQMKSKPRGYCLIINNHNFAKAREKVPKLHSIRDRNGTHLDAGALTTTFEELHFEIKPHDDCTVEQIYEILKIYQLMDHSNMDCFICCILSHGDKGIIYGTDGQEAPIYELTSQFTGLKCPSLAGKPKVFFIQACQGDNYQKGIPVETDSEEQPYLEMDLSSPQTRYIPDEADFLLGMATVNNCVSYRNPAEGTWYIQSLCQSLRERCPRGDDILTILTEVNYEVSNKDDKKNMGKQMPQPTFTLRKKLVFPSD

binding result [3]: no binding
B2: FADD, endogenous (other, UniProt Q13158 1-208, looked up)
chain: MDPFLVLLHSVSSSLSSSELTELKFLCLGRVGKRKLERVQSGLDLFSMLLEQNDLEPGHTELLRELLASLRRHDLLRRVDDFEAGAAAGAAPGEEDLCAAFNVICDNVGKDWRRLARQLKVSDTKIDSIEDRYPRNLTERVRESLRIWKNTEKENATVAHLVGALRSCQMNLVADLVQEVQQARDLQNRSGAMSPMSWNSDASTSEAS
binding result [2]: binds

— US20090075929A1 (BOARD OF TRUSTEES OF THE UNIVERSITY OF ILLINOIS, published 2009)
